Test [1] concerns the target SARS-CoV-2 antigen of the epitope binning (SARS-CoV-2) (UniProt P0DTC2). Kind of test: epitope binning; competitor 1-35.
The target is the same in test [2]. Kind of test: epitope binning; competitor 2-8.
Test [3] shares this target. Briefly: epitope binning; competitor Acro mAb.
Test [4] has the same target. Kind of test: epitope binning; competitor 1-16.
Test [5] shares this target. Briefly: epitope binning; competitor 2-2.
Test [6] shares this target. Briefly: epitope binning; competitor 2-6.
Test [7] has the same target. Kind of test: epitope binning; competitor 2-5.
Test [8] has the same target. Briefly: epitope binning; competitor 2-11.
For test [9] the target is unchanged. Briefly: epitope binning; competitor 1-32.
For test [10] the target is unchanged. Kind of test: epitope binning; competitor CR3022.
Test [11] deals with ACE2 on VERO E6 cells (African green monkey). Kind of test: flow cytometry, VERO E6 cells, positive control.

Consider CR3022 (antibody), for which the epitope binning score in [1] was found to be 2; in [2], 0; in test [3], 2; in test [4], 2; in test [5] it was 0; in test [6], 2. Besides, the epitope binning score in [7] amounted to 0; in test [8], 1; in [9], 1; in test [10], 0.

With “S1 RBD Fc fusion (from UniProt P0DTC2 319-541)”, in [11], the MFI came out at 26100 and the MFI/Baseline was found to be 75.9.
